According to USRE46877:

Experiments:
[1] = target: human CD4 antigen expressed on rat T cell line NB2-6TG (human) (UniProt P01730); assay: FACS, NB2-6TG cells transfected with human CD4; Experiment 1; control antibody at 10 µg/ml
[2] = target: human CD4 antigen expressed on rat T cell line NB2-6TG (human) (UniProt P01730); assay: FACS, NB2-6TG cells transfected with human CD4; Experiment 1; control antibody at 2.5 µg/ml
[3] = target: human CD4 antigen expressed on rat T cell line NB2-6TG (human) (UniProt P01730); assay: FACS, NB2-6TG cells transfected with human CD4; Experiment 1; control antibody at 40 µg/ml
[4] = target: human CD4 antigen expressed on rat T cell line NB2-6TG (human) (UniProt P01730); assay: FACS, NB2-6TG cells transfected with human CD4; Experiment 1; control antibody at 100 µg/ml

- Mean cellular Fluorescence [1]: 9
- Mean cellular Fluorescence [2]: 8.6
- Mean cellular Fluorescence [3]: 9.4
- Mean cellular Fluorescence [4]: 11.6
Substance: reshaped CAMPATH-1 antibody
